Experimental findings from publication doi:10.1101/315713 (bioRxiv, 2018) are described below.

The series concerns the molecule itself.

B1: Dipeptidase 3 (DPEP3), native, from testicular tissue and spermatozoa lysates (natural protein, UniProt Q9H4B8 36-463, looked up)
chain: AETTPGAPRALSTLGSPSLFTTPGVPSALTTPGLTTPGTPKTLDLRGRAQALMRSFPLVDGHNDLPQVLRQRYKNVLQDVNLRNFSHGQTSLDRLRDGLVGAQFWSASVSCQSQDQTAVRLALEQIDLIHRMCASYSELELVTSAEGLNSSQKLACLIGVEGGHSLDSSLSVLRSFYVLGVRYLTLTFTCSTPWAESSTKFRHHMYTNVSGLTSFGEKVVEELNRLGMMIDLSYASDTLIRRVLEVSQAPVIFSHSAARAVCDNLLNVPDDILQLLKKNGGIVMVTLSMGVLQCNLLANVSTVADHFDHIRAVIGSEFIGIGGNYDGTGRFPQGLEDVSTYPVLIEELLSRSWSEEELQGVLRGNLLRVFRQVEKVREESRAQSPVEAEFPYGQLSTSCHSHLVPQNGHQATHLEVTKQPTNRVPWRS
As for B1, the “stoichiometry N” value stood at 2.

B2: DPEP3, free soluble native form in seminal plasma (natural protein, human (endogenous in seminal plasma), UniProt Q9H4B8 36-463, looked up)
chain: AETTPGAPRALSTLGSPSLFTTPGVPSALTTPGLTTPGTPKTLDLRGRAQALMRSFPLVDGHNDLPQVLRQRYKNVLQDVNLRNFSHGQTSLDRLRDGLVGAQFWSASVSCQSQDQTAVRLALEQIDLIHRMCASYSELELVTSAEGLNSSQKLACLIGVEGGHSLDSSLSVLRSFYVLGVRYLTLTFTCSTPWAESSTKFRHHMYTNVSGLTSFGEKVVEELNRLGMMIDLSYASDTLIRRVLEVSQAPVIFSHSAARAVCDNLLNVPDDILQLLKKNGGIVMVTLSMGVLQCNLLANVSTVADHFDHIRAVIGSEFIGIGGNYDGTGRFPQGLEDVSTYPVLIEELLSRSWSEEELQGVLRGNLLRVFRQVEKVREESRAQSPVEAEFPYGQLSTSCHSHLVPQNGHQATHLEVTKQPTNRVPWRS
Regarding B2, the “stoichiometry N” value stood at 2.

The stoichiometry N is the number of molecules, sites or subunits per partner or assembly.
